{
  "source": "the DeepSol protein solubility set",
  "data": [
    {"assay": "soluble on expression in E. coli; label from the status in PepcDB or PDB records", "values": [
      {"sequence": "MSKPKYPFEKRLEVVNHYFTTDDGYRIISARFGVPRTQVRTWVALYEKHGEKGLIPKPKGVSADPELRIKVVKAVIEQHMSLNQAAAHFMLAGSGSVARWLKVYEERGEAGLRALKIGTKRNIAISVDPEKAASALELSKDRRIEDLERQVRFLETRLMYLKKLKALAHPTKK", "soluble on expression in E. coli": "not soluble"},
      {"sequence": "MNGAAQADLWRLVVLNTYGGVYMDIDATLVWPLDKLLGDSQELYIRIKNNTEITNYFIATAPNNPDLQATIEQVVYNVNHYEPSMGVYHSTGPTVLNNILSAKAVIHTQDRKYVCIQGTFTNEHFQYIDKPRGKWLEHHHHHH", "soluble on expression in E. coli": "not soluble"},
      {"sequence": "MNCVCGSGKTYDDCCGPLLARTRSAASPEALMRSRYAAYALKDFDYIVETTDPERRDLFDHDVNRAWMEESDFLELRVLGSSEKGSRGTVEFIARFRRGGGPEQSHHERSQFRKARGRWYFSEGEAVD", "soluble on expression in E. coli": "soluble"},
      {"sequence": "MAKAKAAPKKSVKKVEKSPSPEDSGIRRSGRQRIEMGKYEEGFDRHELEMVLRASLNEANQQGIKVPSTSSTASASAPAPVKKEIKPKNKPAPVPVVEKKRTIPSKKERDAERKALAAAAAAAATLTSMKKAPIKKSVPSTSSEADSTTPKKKGSAVKAKKVTIKTPSSEPAELTSSAAPVPVAVPEVPTAEATTSATTTPTTTNATIVKKEETKAEQPVKKVVKKKAISKKPPTTTNVTSTSDSSAAAAAAKKKKKPVVPKLSTKPTKQYLENEKQMRLMATQKCTYKEPKSLEKRIYFIPFYSLKLAKKNDQISYLNLISFIHKNLFFNF", "soluble on expression in E. coli": "soluble"},
      {"sequence": "MIRQRRRALTPEQQQEMGQQAATRMMTYPPVVMAHTVAVFLSFDGELDTQPLIEQLWRAGKRVYLPVLHPFSAGNLLFLNYHPQSELVMNRLKIHEPKLDVRDVLPLSRLDVLITPLVAFDEYGQRLGMGGGFYDRTLQNWQHYKTQPVGYAHDCQLVEKLPVEEWDIPLPAVVTPSKVWEWMGHHHHHHSH", "soluble on expression in E. coli": "not soluble"},
      {"sequence": "DPDEDSDNSAIYVQGLNDSVTLDDLADFFKQCGVVKMNKRTGQPMIHIYLDKETGKPKGDATVSYEDPPTAKAAVEWFDGKDFQGSKLKVSLARKKPPMN", "soluble on expression in E. coli": "soluble"},
      {"sequence": "GPVDNNNNNGLKNSTEPIYAKVNKKKTGQVASPEEPIYTQVAKKVNAKIDRLNQIASGLGGVGQAAGFPLKRHDKVDDLSKVGLSASPEPIYATIDDLGGPFPLKRHDKVDDLSKVGRSRNQELA", "soluble on expression in E. coli": "soluble"},
      {"sequence": "MKKTKFSSYEEYRNYFKRLIDLERRAQTELHLKEIKTLSGKEREKRGRAILNLRAKFLGRGLGGVYLVRYSRPQGLPKTEISTGDIVLVSKGKPTVKEVQGTVAEKTNYYLVVAFRDKPPPYALGKDVRIDLFSNEITFKRMEEALKNFKEHPLRDFILGKKVLEHHHHHH", "soluble on expression in E. coli": "soluble"},
      {"sequence": "MSLKLIVKIGLIVLLLMFNYQGVDADVVSSAIDRYATTTEHQDNMASDHGTLDTMSFTHSLLTGQQQVLAKLMPDDLRIRRAEELQQNFLKILIGRFSLREEILATDRAKIFPSNPIHCVSPACHYFVFTLRRILIEGHHHHHH", "soluble on expression in E. coli": "not soluble"},
      {"sequence": "PRKRFIYLERKISPAMASYIKELKIPGIHLRKESKRFYPTGEISAHLIGFTNVDDKGIEGIERMYDDLLTGTGGAKRFRKDAKGRKIEIISVEEPEQAQDITLSID", "soluble on expression in E. coli": "not soluble"},
      {"sequence": "MAHHHHHHMMEHLNIEKEAVTYASLIAALHNPQYVLPGHTAKELEAHLPGGVSSQQHTNVGEGGGTVTEGQASGPTSNSVDLSGTKTSYEAYRQERIEAGMAWFAACHSAHRTADVFNELLYLLRAKSHWCQFNTVLVQLRGNAVVTETEWPERLSEAGEGVPPSASAAGGASPGSVTILAPRWSTWPNGKTYELLIQRARYVHQWEVMWALYEEMIATGVHGTARVYEVLLLEARSHPPQAVLAAERSGNSDGASSFLLRLYEELRRNGSDVHSFTGTVNVVNAWTRARSRSNRWQS", "soluble on expression in E. coli": "not soluble"},
      {"sequence": "GSMPKPGILKSKSMFCVIYRSSKRDQTYLYVEKKDDFSRVPEELMKGFGQPQLAMILPLDGRKKLVNADIEKVKQALTEQGYYLQLPPPPEDLLKQHLSVMGQKTDDTNK", "soluble on expression in E. coli": "soluble"},
      {"sequence": "MVYYEIIKDIVFTYNLQFTHLIHNDRISEVNLGGVTMRSIITQICNGVLHGQSYQSGSNDLDKGNSEIFASSLFVHLNEQGKEIIKHKDSDDKIVIGYTKDGMAFQIVVDGFYGCERQAVFSFIDNYVLPLIDNFSLDLTRYPDSKKVTESLIHTIYSLRSKHAPLAEFTMSLCVTYQKDEQLFCAGFGIGDTGIAIKRNEGTIEQLVCHTEVDGFKDAFDNYSSANIDLVIERNSVFNTKVMPGDELVGYTYVPPMLEMTEKEFEVETVDGKKINKRIVRHLNLDPGNFDDKDPLFSQLLQVVKSKQKQLVEQAKETGQIQRFGDDFTVGRLVIPDQLLINQLRIHALSIGVSDGLLSYIKNENENKGFLGIYGFFTGADKNIEKATLYKNLIAKYQNNHFISLIILSALVSDSKTPLMTQYLVGYLDFPSKALLANKITELLLKELENPDMREILGSRLATDVIEELETKIIRYIHNPAGSDIHSTLNLWTADKIKAATNSSLTI", "soluble on expression in E. coli": "not soluble"},
      {"sequence": "MTFMKLYFFGDDNNKPKLSEHLIIYILSLLDPKSQSVASLVNKDWSRLVQLTRQYLSMLPVIHRIPLFANLGLDVLKLKLMTGGMTNSTVRLRIKNAPEKWVMRIPGIGSSAFITRRDEAHNAKQAEKLGLNVPIAFFDPEDGLQVTRFIEGVHSLDDKALARKEILHEVASMMRRLHKSPPFDNNTLFFERNEELLDLLKRKPFNFPGEIEFVEQQMKNLKEIFSSYHIQQFPCHNDTTPLNFILSENPEIKGSEKIHQIDWEYSSNNDFIWDLVYFMVEAKLNREQQLILLKAYFNTEELSDSLLAWIEVYKPIIEWWITIWSWTQLANGANAVDLSSYEQLGLERYHNTLSHLKSEDYVKALALIEADSHSLTFTGQRPF", "soluble on expression in E. coli": "not soluble"},
      {"sequence": "MHQLWTYDPAAGTVEVGAGTTNEGLVDGPGEEAWFAQPSGLAATADRLWLADSETSALRWVDLDGAVHTAVGTGLFDFGHRDGDAEQALLQHPLGVTALPDGSVAVSDTYNHALRRYDPATGEVTTLATDLREPSDAVLVGDDIVVVESARHRLTRLRLPEEAVRVASVAHRTQRAATEVAPGRLQLDVIFQAPAGQKLDTRYGPSTRLLVSSTPPELLLNGEGADPDLSRTLELNPAIPEGVLHVSAMAASCDDDPANEYPACHVHQQDWGVPVRLTEGGADRLPLVLAGMDALEHHHHHH", "soluble on expression in E. coli": "not soluble"},
      {"sequence": "MPIRSNPFFNMDSSALLSLLRHTGTSMDSKSSKKSSGSIGGGVLKMFKLIPMLSSGCKMVNLLSRGHRRPLLKDYATTGTIFGFRKGRVFLAIQEDPHCLPIFIIELPMLTSALQKEMASETVRIALESETKTSRKKVLEEYVWGIYCNGRKIGYSIRRKNMSEEEMYVIDALRGVSMGAGVLPCKNQYDQETEGEMTYMRARFDRVIGSKDSEALYMINPEGSGQGTELSIYFLRSH", "soluble on expression in E. coli": "soluble"},
      {"sequence": "MNQVEMTEFPVGKPQEALYGVASTPDGALWFTLAKGNAIGRLSPDGAVSRFPLPHTDGQPTTITCGPDGRPWFTLSSANAIGRLAPDGALRMFELPRPASRPFGIAGGHDGCLWFAEMAGDRIGRITIDGDIEEYDLPVKGGYPSCMAAGRDGLMWFTLNQAGAVGSISATAAPRIFPLGAADAAPVGIASDAQGALWIAQAGNGAIVRFDAGGRITEFPLHSRAARPHAIAADAAGNLWFTEWGANRIGRISEAGDLAGYELAAPGSEPHGIAIDPHGCVWAALETGRLVRLQASPRDLEHHHHHH", "soluble on expression in E. coli": "soluble"},
      {"sequence": "MSLSETSRQLSGRFLHVTDFHLDTHYRKGTSEETLCHRDSGSAGRLGAEGSDCDSPQALIDETFRWIEKNLKGKIDFVLWTGDSARHDNDEKIPRTASEIIDLNKALAAKFIEVFEDSGAARGLSIPVIPTIGNNDIMPHNIFREAPNRWTRKFTEVWSEFIPEAQRHTFEEGGWFSAELIPNKLAALSLNTMYFYESNSAVDGCAMPSEPGFEHMEWLRVQLEILRQRGMKAILIGHVPPARSGSKRSWDESCWQKYTLFMNRFRDVVVGSVYGHMNVDHFMLQDSHDVDIVAASEDSSSDPGFSVQSRTDYLASLREEWDSMPSPPGGDSSDILLSDDWNLDALGKKEREGHHHHHH", "soluble on expression in E. coli": "soluble"},
      {"sequence": "MNIDELIAIDVHTHAEEPCCGPRDDGYDEFQAGMAKYFKNPAGHKGMLPTVQETAAYYRERKIGCVIFPVDAERETGFRRYENEEVAKIAAENSDIMIPFASIDPAKGKAGAREARRLVREFGVKGFKFHPTMQGFYPNDRMAYPLYEAIAEEGAITLFHTGQTGVGAGLRGGMAMRLKFSNPIHLDDVAVDFPDMPIILAHPSFPWQEEALSVATHKPNVYIDMSGWSPKYFPPILVQYANSLLKHKMLFGSDWPAMTPERWLNDFANISIKDEVRPLILKENARRLLKLLEHHHHHH", "soluble on expression in E. coli": "not soluble"},
      {"sequence": "MSKGGWYLWHYLTLLKGKAYCDIYCKRITFNVKFRYVYRHFHWYSSSNNKFKQLEHHHHHH", "soluble on expression in E. coli": "not soluble"},
      {"sequence": "MSLITCSKCSRRAVIFQRHANRHLCKRHFIEDFERRVKLAVKKYDMIQKGDRIAIALSGGKDSVTLAFVLNKLYGFRSDLEFFAITIDEGIAGYRPPTVEIARKVTEQLGMEHLVVSFEENFGMTLDEMVKRGDKKPCTYCGVFRKYLLNRTAREMGATKLATGHNLDDETQTILLNFLNADMERMARLVPQRVQEGLVVRIKPFRYVYEKEVVVYGFLHELPMDFDECPYSHFPVRAAVRDFLYDFENKYPGRKFSVMSSFEKLIPCLKEIYPQIDLNRCERCGEPTPRRICQACKLLEELRGVDEGHHHHHH", "soluble on expression in E. coli": "not soluble"},
      {"sequence": "MTTMVNVDTLPEYEKSQIKRALELGTVMTVFNARKSTPERRTVQMIMETRQVAWSKTADKIEGFLDIMEIKEIRPGKNSKDFERAKAVRHKAECCFTILYGTQFVLSTLSLATDSKEDAVKWLSGLKILHQEAMSASTPTMIESWLRKQIYSVDQTRRNSISLRELKTILPLVNFKVSGIKFLKDKLVEIGAQKDELSFEQFHLFYKKLMFDQQKSILDEFKKDSSVFILGNTDRPDASAVYLQDFQRFLLHEQQELWAQDLNKVRERMTKFIDDTMRETAEPFLFVDEFLTYLFSRENSIWDEKYDAVDMQDMNNPLSHYWISSSHNTYLTGDQLRSESSTEAYIRCLRAGCRCIELDCWDGPDGKPIIYHGWTRTTKIKFDDVVQAIRDHAFVTSSFPVILSIEEHCSVEQQRHMAKVFKEVLGDMLLTKPTEASADQLPSPSQLREKIIIKHKKLGPKGDVDVNVEDKKDEHKPQGELYMWDSIDQKWTRHYCAIADAKLSFGDDIEQAVEEEPVQDTPPTELHFGEKWFHKKVESRTSAEKLLQEYCAETGAKDGTFLVRESETFPNDYTLSFWRSGRVQHCRIRSTMENGVMKYYLTDNLTFNSIYALIQHYREAHLRCAEFELRLTDPVPNPNPHESKPWYYDSLSRGEAEDMLMRIPRDGAFLIRKREGTNSYAITFRARGKVKHCRINRDGRHFVLGTSAYFESLVELVSYYEKHALYRKMRLRYPVTPELLERYNMERDINSLYDVSRMYVDPSEINPSMPQRTVKALYDYKAKRSDELTFCRGALIHNVSKEPGGWWKGDYGTRIQQYFPSNYVEDISAGDAEEMEKQIIEDNPLGSLCKGILDLNTYNVVKAPQGKNQKAFVFILEPKKQGDPPVEFATDRVEELFEWFQSIREITWKMDTKENNMKYWERNQSIAIELSDLVVYCKPTSKTKDHLENPDFREIRSFVETKADSIVRQKPVDLLRYNQKGLTRVYPKGQRVDSSNYDPFRLWLCGSQMVALNFQTPDKYMQMNHALFSLNGRTGYVLQPESMRSEKYDPMPLESQRKILMTLTVKVLGARHLPKLGRSIACPFVEVEICGAEYDSNKFKTTVVNDNGLSPVWAPTQEKVTFEIYDPNLAFLRFVVYEEDMFSDPNFLAHATYPIKGIKSGFRSVPLKNGYSEDIELASLLVFCEMRPVLESEEELYSSCRQLRRRQEELNNQLFLYDTHQNLRGANRDALVKEFNVNENQLQLYQEKCNRRLREKRVSNSRFYS", "soluble on expression in E. coli": "soluble"}
    ]}
  ]
}
